# Experimental data reported in IntAct's records for PubMed 15611164.
# B1: Ankyrin repeat-containing protein YAR1 (Saccharomyces cerevisiae), P46683 (parent)
# chain: MGLHSEPLDQEDQDTIILDARAGDLDSLKDIFTTLVSPELLSTCKESESDSTALHMAAANGHIETVRYILETVSRANSAEDLKAFVNEVNKTGNTALHWASLNGKLDVVKLLCDEYEADPFIRNKFGHDAIFEAENSGKEEVETYFLKKYDVEPEDDEEDTQTEGKNSVQITKGTEIEQVTKEATEALREETEKLNINKD
# partner: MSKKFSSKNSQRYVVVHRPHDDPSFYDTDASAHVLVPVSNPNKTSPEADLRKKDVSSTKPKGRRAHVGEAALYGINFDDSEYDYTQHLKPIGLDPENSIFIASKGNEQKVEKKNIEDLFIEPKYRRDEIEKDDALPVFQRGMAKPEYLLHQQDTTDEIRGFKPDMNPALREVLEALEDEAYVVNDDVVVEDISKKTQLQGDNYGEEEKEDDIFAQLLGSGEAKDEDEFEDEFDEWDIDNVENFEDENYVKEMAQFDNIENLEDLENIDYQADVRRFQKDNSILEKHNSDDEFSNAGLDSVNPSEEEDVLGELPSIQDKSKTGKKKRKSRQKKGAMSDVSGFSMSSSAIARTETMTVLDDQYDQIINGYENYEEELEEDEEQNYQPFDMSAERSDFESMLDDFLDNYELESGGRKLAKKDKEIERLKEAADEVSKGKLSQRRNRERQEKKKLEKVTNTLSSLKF
# Variants of: B1
# Conditions: with ltv1_yeast LTV1, P34078
row,effect of a mutation on the interaction,Variant
1,decreasing interaction,MGLHSEPLDQEDQDTIILDARAGDLDSLKDIFTTLVSPELLSTCKESESDSTALHMAAANGHIETVRYILETVSRANSAEDLKAFVNEVNKTGNTALHWASLNGKLDVVKLLCDEYEADPFIRNAFGHDAIFEAENSGKEEVETYFLKKYDVEPEDDEEDTQTEGKNSVQITKGTEIEQVTKEATEALREETEKLNINKD [K125A]
2,decreasing interaction,MGLHSEPLDQEDQDTIILDARAGDLDSLKDIFTTLVSPELLSTCKESESDSTALHMAAANGHIETVRYILETVSRANSAEDLKAFVNEVNATGNTALHWASLNGKLDVVKLLCDEYEADPFIRNKFGHDAIFEAENSGKEEVETYFLKKYDVEPEDDEEDTQTEGKNSVQITKGTEIEQVTKEATEALREETEKLNINKD [K91A]
